Patent US20190270815A1 (WUXI BIOLOGICS IRELAND, published 2019)

What was measured:
Assay in all cases: ELISA, antibody coated, His-tagged PD-1 mutant supernatant; fold change vs silent alanine substitutions
[1] = target: T1, hPD-1 ECD-His point mutant Q 133 (to alanine) (human, UniProt Q15116 25-170)
T1 construct: extracellular domain
Procedure: (§1) After interacting with the supernatant that contains quantified PD-1 mutant, HRP conjugated anti-His antibody (Rockland, Cat#200-303-382) was added as detection antibody. Absorbance was normalized according to the average of control mutants. After setting an additional cutoff to t4he binding fold change (<0.55), the final determined epitope residues were identified.

[2] = target: T2, hPD-1 ECD-His point mutant F 106 (to alanine) (human, UniProt Q15116 25-170)
T2 construct: extracellular domain
Procedure: as §1

[3] = target: T3, hPD-1 ECD-His point mutant L 142 (to alanine) (human, UniProt Q15116 25-170)
T3 construct: extracellular domain
Procedure: as §1

[4] = target: T4, hPD-1 ECD-His point mutant A 113 (to glycine) (human, UniProt Q15116 25-170)
T4 construct: extracellular domain
Procedure: as §1

[5] = target: T5, hPD-1 ECD-His point mutant P 39 (to alanine) (human, UniProt Q15116 25-170)
T5 construct: extracellular domain
Procedure: as §1

[6] = target: T6, hPD-1 ECD-His point mutant K 135 (to alanine) (human, UniProt Q15116 25-170)
T6 construct: extracellular domain
Procedure: as §1

[7] = target: T7, hPD-1 ECD-His point mutant A 129 (to glycine) (human, UniProt Q15116 25-170)
T7 construct: extracellular domain
Procedure: as §1

[8] = target: T8, hPD-1 ECD-His point mutant L 65 (to alanine) (human, UniProt Q15116 25-170)
T8 construct: extracellular domain
Procedure: as §1

[9] = target: T9, hPD-1 ECD-His point mutant S 137 (to alanine) (human, UniProt Q15116 25-170)
T9 construct: extracellular domain
Procedure: as §1

[10] = target: T10, hPD-1 ECD-His point mutant P 130 (to alanine) (human, UniProt Q15116 25-170)
T10 construct: extracellular domain
Procedure: as §1

[11] = target: T11, hPD-1 ECD-His point mutant F 52 (to alanine) (human, UniProt Q15116 25-170)
T11 construct: extracellular domain
Procedure: as §1

[12] = target: T12, hPD-1 ECD-His point mutant G 47 (to alanine) (human, UniProt Q15116 25-170)
T12 construct: extracellular domain
Procedure: as §1

[13] = target: T13, hPD-1 ECD-His point mutant W 67 (to alanine) (human, UniProt Q15116 25-170)
T13 construct: extracellular domain
Procedure: as §1

[14] = target: T14, hPD-1 ECD-His point mutant F 95 (to alanine) (human, UniProt Q15116 25-170)
T14 construct: extracellular domain
Procedure: as §1

T9 sequence (Q15116 other isoform, or with tags, fused parts or gaps mutant): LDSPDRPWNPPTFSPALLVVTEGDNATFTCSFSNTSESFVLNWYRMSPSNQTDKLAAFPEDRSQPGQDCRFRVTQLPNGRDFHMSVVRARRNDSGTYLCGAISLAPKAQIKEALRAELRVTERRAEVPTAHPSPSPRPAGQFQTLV
T14 sequence (Q15116 other isoform, or with tags, fused parts or gaps mutant): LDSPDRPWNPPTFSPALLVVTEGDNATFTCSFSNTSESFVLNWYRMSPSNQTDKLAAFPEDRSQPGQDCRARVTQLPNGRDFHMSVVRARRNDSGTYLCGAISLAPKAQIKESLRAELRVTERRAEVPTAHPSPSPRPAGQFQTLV
T8 sequence (Q15116 other isoform, or with tags, fused parts or gaps mutant): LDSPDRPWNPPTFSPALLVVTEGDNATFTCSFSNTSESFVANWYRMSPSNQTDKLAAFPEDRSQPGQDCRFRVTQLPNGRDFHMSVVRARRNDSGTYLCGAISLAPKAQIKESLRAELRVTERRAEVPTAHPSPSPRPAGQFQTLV
T6 sequence (Q15116 other isoform, or with tags, fused parts or gaps mutant): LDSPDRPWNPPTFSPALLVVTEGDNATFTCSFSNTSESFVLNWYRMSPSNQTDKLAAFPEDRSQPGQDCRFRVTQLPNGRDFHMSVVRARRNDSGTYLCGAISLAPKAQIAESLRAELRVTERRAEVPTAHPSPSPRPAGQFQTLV
T12 sequence (Q15116 other isoform, or with tags, fused parts or gaps mutant): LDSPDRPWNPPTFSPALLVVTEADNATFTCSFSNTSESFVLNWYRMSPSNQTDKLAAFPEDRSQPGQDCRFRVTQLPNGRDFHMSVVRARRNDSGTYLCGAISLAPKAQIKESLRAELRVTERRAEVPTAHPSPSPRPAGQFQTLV
T5 sequence (Q15116 other isoform, or with tags, fused parts or gaps mutant): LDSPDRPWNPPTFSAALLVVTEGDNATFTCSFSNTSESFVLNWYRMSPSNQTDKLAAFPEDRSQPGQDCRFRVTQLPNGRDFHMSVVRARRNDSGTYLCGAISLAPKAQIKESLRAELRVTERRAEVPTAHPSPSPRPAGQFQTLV
T10 sequence (Q15116 other isoform, or with tags, fused parts or gaps mutant): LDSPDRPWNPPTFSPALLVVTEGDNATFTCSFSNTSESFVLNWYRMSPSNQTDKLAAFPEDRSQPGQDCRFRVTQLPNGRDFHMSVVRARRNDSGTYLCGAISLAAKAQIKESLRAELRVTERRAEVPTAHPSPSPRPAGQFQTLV
T7 sequence (Q15116 other isoform, or with tags, fused parts or gaps mutant): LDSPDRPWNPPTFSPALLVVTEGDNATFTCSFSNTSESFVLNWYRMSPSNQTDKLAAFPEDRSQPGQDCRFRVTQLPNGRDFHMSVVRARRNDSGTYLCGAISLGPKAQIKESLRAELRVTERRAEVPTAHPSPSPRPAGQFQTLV
T13 sequence (Q15116 other isoform, or with tags, fused parts or gaps mutant): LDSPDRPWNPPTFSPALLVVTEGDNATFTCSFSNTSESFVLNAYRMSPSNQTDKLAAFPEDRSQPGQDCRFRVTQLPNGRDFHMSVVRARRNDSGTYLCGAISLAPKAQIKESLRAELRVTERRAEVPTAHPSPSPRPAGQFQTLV
T4 sequence (Q15116 other isoform, or with tags, fused parts or gaps mutant): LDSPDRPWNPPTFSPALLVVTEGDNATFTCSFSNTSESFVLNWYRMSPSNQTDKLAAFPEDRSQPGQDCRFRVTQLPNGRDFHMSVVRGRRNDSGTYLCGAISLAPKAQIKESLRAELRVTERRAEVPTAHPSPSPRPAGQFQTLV
T3 sequence (Q15116 other isoform, or with tags, fused parts or gaps mutant): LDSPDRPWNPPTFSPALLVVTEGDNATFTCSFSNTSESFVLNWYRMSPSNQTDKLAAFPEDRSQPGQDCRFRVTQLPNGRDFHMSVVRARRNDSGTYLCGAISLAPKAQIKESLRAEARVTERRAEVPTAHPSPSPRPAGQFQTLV
T2 sequence (Q15116 other isoform, or with tags, fused parts or gaps mutant): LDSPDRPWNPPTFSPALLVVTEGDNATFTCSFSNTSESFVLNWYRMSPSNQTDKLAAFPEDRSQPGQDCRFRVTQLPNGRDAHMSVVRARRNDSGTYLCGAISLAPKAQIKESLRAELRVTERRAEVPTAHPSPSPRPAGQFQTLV
T1 sequence (Q15116 other isoform, or with tags, fused parts or gaps mutant): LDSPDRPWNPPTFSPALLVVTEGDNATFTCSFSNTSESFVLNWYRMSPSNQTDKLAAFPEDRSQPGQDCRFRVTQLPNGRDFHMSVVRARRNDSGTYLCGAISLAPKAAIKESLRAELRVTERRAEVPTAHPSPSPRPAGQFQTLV
T11 sequence (Q15116 other isoform, or with tags, fused parts or gaps mutant): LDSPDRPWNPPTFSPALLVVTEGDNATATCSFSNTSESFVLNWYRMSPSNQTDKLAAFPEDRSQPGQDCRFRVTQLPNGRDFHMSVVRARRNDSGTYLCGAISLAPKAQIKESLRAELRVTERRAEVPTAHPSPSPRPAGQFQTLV

B1: 1.103.11 hAb (antibody, V domains shown)
VH: QLQLQESGPGLVKPSETLTLTCTVSADSISSTTYYWVWIRQPPGKGLEWIGSISYSGSTYYNPSLKSRVTVSVDTSKNQFSLKLNSVAATDTALYYCARHLGYNGRYLPFDYWGQGTLVTVSS
VL: QSALTQPASVSGSPGQSITISCTGTSSDVGFYNYVSWYQQHPGKAPELMIYDVSNRPSGVSDRFSGSKSGNTASLTISGLQAEDEADYYCSSYTNISTWVFGGGTKLTVL
notes: fully human monoclonal antibody with a human constant region of IgG4 isotype
fold change [1]: 0.37 | fold change [2]: 0.41 | fold change [3]: 0.44 | fold change [4]: 0.73 | fold change [5]: 0.55 | fold change [6]: 0.62 | fold change [7]: 0.22 | fold change [8]: 0.75 | fold change [9]: 0.62 | fold change [10]: 0.41 | fold change [11]: 0.59 | fold change [12]: 0.77 | fold change [13]: 0.76 | fold change [14]: 0.63
